What was measured:
[1] = 20-60% sucrose gradient ultracentrifugation, anti-M blot; conditions: glycan lost; control: WTrIBV
[2] = plaque size and shape, Vero cells; conditions: glycan lost; control: WTrIBV
[3] = RT-qPCR of IBV gRNA and sgRNA2; conditions: glycan lost; control: WTrIBV
[4] = indirect immunofluorescence, infected Vero cells; conditions: glycan lost; control: WTrIBV
[5] = growth curve, TCID50, Vero cells; conditions: glycan lost; control: WTrIBV
[6] = co-expression with E in COS-7, pelleted VLP blot; conditions: glycan lost; control: MWT

B1: IBV M protein (membrane protein): rN3D/N6D (protein)
parent chain: MPNETNCTLDFEQSVQLFKEYNLFITAFLLFLTIILQYGYATRSKVIYTLKMIVLWCFWPLNIAVGVISCTYPPNTGGLVAAIILTVFACLSFVGYWIQSIRLFKRCRSWWSFNPESNAVGSILLTNGQQCNFAIESVPMVLSPIIKNGVLYCEGQWLAKCEPDHLPKDIFVCTPDRRNIYRMVQKYTGDQSGNKKRFATFVYAKQSVDTGELESVATGGSSLYT
no change: other: virion sedimentation [1] | other: viral replication [2] | other: viral replication [3] | localisation_or_trafficking [4] | other: viral replication [5]

B2: IBV M protein (membrane protein): MN3D/N6D (protein)
parent chain: B1 parent chain
no change: other: VLP formation [6]
